Key:
[1] = tested on: SCD Tg mice; assay: Life span of RBCs in SCD Tg mice (in vivo biotin labelling); parameters: species or system mouse
Procedure: Measurement of life span of RBCs in SCD Tg mice. SCD Tg mice were treated with or without PEG ? ADA (2.5 unit/week) for 8 weeks. At 6 week-treatment, RBCs were labeled in vivo by using N-hydroxysuccinimide (NHS) biotin and the life span of circulating red blood cells was measured as described (Perumbeti, et al. A novel human gamma-globin gene vector for genetic correction of sickle cell anemia in a humanized sickle mouse model: critical determinants for successful correction. Blood. 2009; 114(6):1174-1185).
Specifically, 50 mg/kg of NHS biotin was injected into the retro-orbital plexus of SCD Tg mice (prepared in 100 μl sterile saline just prior to injection; initially dissolved at 50 mg/ml in N,—N,-dimethylacetamide) Blood samples (only 5 μl) were collected after first day of biotin-injection from tail vein by venipuncture to determine the percentage of RBCs labeled with biotin. Subsequently, 5 μl of blood were obtained by tail vein every 3 days for measurement of biotinylated RBCs until the 10th day. The percentage of biotinylated RBCs was calculated by determining the fraction of peripheral blood cells labeled with Ter-119 (to identify RBCs) that were also labeled with a streptavidin-conjugated fluorochrome by flow cytometry.

[2] = tested on: RBCs from SCD patients; assay: Hypoxia-induced 2,3-DPG in erythrocytes purified from SCD patients; type: cell-based, human; conditions: hypoxic conditions (2% oxygen)
Procedure: (§1) Isolation of total erythrocytes and treatment of human and mouse erythrocytes in vitro. Blood collected with heparin as an anti-coagulant was centrifuged at 240×g for 10 min at room temperature, followed by aspiration of plasma and white interface. Packed red blood cells (RBCs) were washed 3 times with culture media (F-10 Ham's with 1% penicillin/streptomycin, 10% fetal bovine serum (FBS), and re-suspended to 4% hematocrit (HCT). One ml of RBCs was added to each well of a 12-well plate. Normal RBCs purified from humans were treated with different concentrations of 5′-(N-ethyl-carboxamido) adenosine (NECA, an adenosine receptor agonist, Sigma-Aldrich, St. Louis, Mo.) ranging from 1-50 μM for different time points (from 1 to 18 hr) under normoxic conditions. Normal RBCs were treated with 10 μM NECA in the presence or absence of adenosine receptor antagonists, including theophylline, PSB36, SCH442416, MRS1754 and MRS3777 (Tocris Bioscience, St. Louis, Mo.) at 10 μM. In addition, normal RBCs were treated directly with the A2BR agonist (BAY 60-6583, Bayer HealthCare AG, Wuppertal, Germany) or the A2AR agonist (CGS21680) (Tocris). Similarly, the mouse RBCs were treated with or without NECA at 10 μM in the presence or absence of theophylline (10 μM). In addition, RBCs purified from 4 adenosine receptor deficient mice were treated with 10 μM NECA. After 18 hours, cells were collected and 2,3-DPG levels were measured as described below. RBCs were purified from SCD patients and treated with or without 10 μM NECA, 5 units/ml polyethylene glycol-adenosine deaminase (PEG-ADA) or 3 mmol/L glycolic acid (Sigma-Aldrich), 10 μM MRS1754 (A2BR antagonist) under ambient oxygen (normoxia) or different levels of hypoxic conditions (for 3 hours with shaking at 37° C. At the end of experiments, 2,3-DPG levels were measured and the percentage of sickled cells determined as described below.
2,3-DPG analysis. 2,3-DPG concentration in RBCs was detected by a commercially available kit (Roche, Nutley, N.J., and as described in Ericson A, de Verdier C H. A modified method for the determination of 2,3-diphosphoglycerate in erythrocytes. Scandinavian journal of clinical and laboratory investigation. 1972; 29(1):84-90).

[3] = tested on: SCD Tg mice; assay: Organ weight, histology and heme content in SCD Tg mice after chronic treatment; type: in vivo, mouse
Procedure: Chronic PEG-ADA therapy. SCD transgenic mice, at eight weeks of age, were divided to two groups. One group was injected with 2.5 U PEG-ADA weekly for 8 weeks. This dosing protocol was designated SCD with PEG-ADA treatment regimen (SCD+PEG-ADA). Another group was injected with normal saline for 8 weeks; it was designated as SCD without PEG-ADA treatment regimen (SCD). Wild-type mice (C57Bl/6) used as control were injected with saline or PEG-ADA as with the SCD groups.
Chronic treatment with A2BR antagonist, PSB1115. SCD transgenic mice or wild type mice (eight weeks of age) were divided to two groups, one groups was injected with 200 μg of PSB1115 (an A2B receptor antagonist: obtained from Tocris Bioscience, St. Louis, Mo.) in PBS, daily for 8 weeks. One of groups was injected with saline.
Mouse organ isolation and histological analysis. Mice were anesthetized and body weight was determined. Organs were isolated and weighed. Half of each organ was quickly frozen in liquid nitrogen and then stored at −80° C. for heme content measurements as described below. The remaining half of each organ was fixed with 4% paraformaldehyde in PBS overnight at 4° C. Fixed tissues were rinsed in PBS, dehydrated through graded ethanol washes, and embedded in paraffin. 5 μm sections were collected on slides and stained with haematoxylin and eosin (H&E). Semiquantification of histological changes was analyzed by Image-Plus, Pro software.
Heme content measurement in multiple mouse tissues. Different organs were quickly removed and frozen in liquid nitrogen as described above. Heme was extracted from organs by homogenization with 1% Triton x-100 in PBS with 1× proteinase inhibitors (Roche) and the supernatant was collected following centrifugation at 20,000 g for 10 minutes at 4° C. Heme content was quantified following the instructions of QuantiChrom Heme Assay Kit (BioAssay Systems, Hayword, Calif.).

[4] = tested on: RBCs from SCD patients; assay: Hypoxia-induced sickling of RBCs from SCD patients; type: cell-based, human; conditions: RBCs from individuals with SCD, hypoxic conditions
Procedure: as §1
Morphological study of erythrocytes and quantification of reticulocytes by flow cytometry. Blood smears were stained using the WG16-500 ml kit (Sigma-Aldrich) for sickled cells and observed using 100× oil immersion objective of Olympus BX60 microscope. […] The percentages of sickled cells among the counted cells were calculated. Reticulocyte was labeled by Retic-COUNT Reagent (Becton Dickinson) and quantified by flow cytometry (Perumbeti, et al., A novel human gamma-globin gene vector for genetic correction of sickle cell anemia in a humanized sickle mouse model: critical determinants for successful correction. Blood. 2009; 114(6):1174-1185).

B1: PEG-ADA: polyethylene glycol-modified adenosine deaminase, a drug used to lower adenosine concentrations in ADA-deficient humans (protein, UniProt P56658 2-363, looked up)
Adenosine deaminase: AQTPAFNKPKVELHVHLDGAIKPETILYYGRKRGIALPADTPEELQNIIGMDKPLSLPEFLAKFDYYMPAIAGCREAVKRIAYEFVEMKAKDGVVYVEVRYSPHLLANSKVEPIPWNQAEGDLTPDEVVSLVNQGLQEGERDFGVKVRSILCCMRHQPSWSSEVVELCKKYREQTVVAIDLAGDETIEGSSLFPGHVKAYAEAVKSGVHRTVHAGEVGSANVVKEAVDTLKTERLGHGYHTLEDATLYNRLRQENMHFEVCPWSSYLTGAWKPDTEHPVVRFKNDQVNYSLNTDDPLIFKSTLDTDYQMTKNEMGFTEEEFKRLNINAAKSSFLPEDEKKELLDLLYKAYGMPSPASAEQCL
modifications: PEGylated
[1]; chronic treatment vs untreated
  fold increase of half-life of RBCs: 2 fold
[1]; chronic treatment, untreated 2 days
  half-life of RBCs: 96 h
[2]
  hypoxia-mediated induction of 2,3-DPG: reduced
[3]; 8 weeks treatment, lung, liver, spleen (PSB1115 also kidney)
  congestion, vascular damage and necrosis in multiple tissues (histology): improved
[3]; PEG-ADA enzyme therapy
  heme content in lung, liver and spleen: significantly decreases
  microinfarction and cysts in renal cortex and congestion in renal medulla: significantly improved
[3]; chronic treatment, untreated 4.52±0.24, p<0.05, n=8
  ratio of spleen weight to body weight: 2.48±0.36
[4]
  percentage of sickled cells: significantly reduced

Reference: patent publication US20120134979A1, “METHODS AND COMPOSITIONS FOR THE TREATMENT OF SICKLE CELL DISEASE” (priority 2010, published 2012)
